The text below walks through data of article PMC4160250.

The target in assay [1] is UbP_C (C-terminal part of DC-UbP, residues 129-234), His-tagged (human) (UniProt Q8WUN7). The assay can be described thus: NMR titration; 15N-labelled UbP_C (200 uM; 150 uM for the affinity) titrated with USP5_UBA12 or USP5_ZnF; 1H-15N HSQC, 20 mM phosphate, 50 mM NaCl, pH 6.5, 298 K.
Assay [2] deals with His-tagged DC-UbP (human) (UniProt Q8WUN7). Nature of the assay: NMR titration; 15N-labelled DC-UbP (100 uM) titrated stepwise with unlabelled USP5, UbE1, FH or SCCH; 1H-15N HSQC, 20 mM phosphate, 50 mM NaCl, pH 6.5, 298 K.
Chain of His-tagged DC-UbP (human) (Q8WUN7 whole entry): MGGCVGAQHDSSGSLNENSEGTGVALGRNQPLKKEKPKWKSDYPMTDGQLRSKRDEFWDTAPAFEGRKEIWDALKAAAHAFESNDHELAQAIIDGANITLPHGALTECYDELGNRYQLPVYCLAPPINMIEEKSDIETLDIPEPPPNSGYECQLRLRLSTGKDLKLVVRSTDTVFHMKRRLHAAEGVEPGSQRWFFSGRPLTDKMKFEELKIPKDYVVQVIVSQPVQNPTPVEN

Chain of UbP_C (C-terminal part of DC-UbP, residues 129-234), His-tagged (human) (Q8WUN7 129-234): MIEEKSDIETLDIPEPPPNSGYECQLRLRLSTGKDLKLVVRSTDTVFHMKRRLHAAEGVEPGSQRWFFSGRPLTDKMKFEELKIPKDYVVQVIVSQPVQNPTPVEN

Regarding “USP5_UBA12 (tandem UBA domains of USP5, residues 625-749) (from UniProt P45974 625-749) (domain or fragment)”, in assay [1], the Kd stood at 400 µM.
In the case of “USP5, recombinant, purified (from UniProt P45974 1-858) (enzyme)”, in assay [2], the mean relative peak intensity of the UBD domain of DC-UbP at 1:1 molar ratio (free DC-UbP = 1) came out at 0.56 and the mean relative peak intensity of the UbL domain of DC-UbP at 1:1 molar ratio (free DC-UbP = 1) was determined as 0.27.
